These results are taken from PMC3848071 (Acta Naturae, 2013).

In series [1] the target is MGL from P. gingivalis (Porphyromonas gingivalis, UniProt Q7MX71). The settings on record: read-out: MGL from P. gingivalis / Кm.
For series [2], the target named is T1, MGL from C. tetani (Clostridium tetani, UniProt Q890V5).
T1 construct: gene CTC_02530
The settings on record: read-out: MGL from C. tetani / Кm.

For series [3], the target named is T2, MGL from C. sporogenes (Clostridium sporogenes, UniProt A0A7X5SZI3).
T2 construct: gene megL
In kind it is biochemical. The settings on record: read-out: MGL from C. sporogenes / Кm.

Series [4] has as its system CSCC[C@H](N)C(=O)O. The series is described as follows: purified protein.
The test system of series [5] is N[C@@H](CSCc1ccccc1)C(=O)O. The experiment in a line: purified protein.
In series [6] the test system is C[S+]([O-])CC[C@H](N)C(=O)O. The experiment in a line: purified protein.
The test system of series [7] is CCSC[C@H](N)C(=O)O. The series is described as follows: purified protein.

In the case of `CCSCC[C@H](N)C(=O)O` [S-Et-L-Hcy], the Km in series [1] came out at 930 µM; in series [2] it was 545 µM; in series [3], 278 µM.
In general, kcat/Km refers to the turnover number divided by the Michaelis constant. For “MGL from C. tetani (Clostridium tetani E88)”, in series [4], the Km is 0.947 mM and the kcat/Km was found to be 12700 M⁻¹ s⁻¹.
Turning to “MGL from P. gingivalis (Porphyromonas gingivalis W83)”, the Km in series [4] is listed as 1.77 mM; in series [5], 1.47 mM; in series [6] it was 12.22 mM; in series [7], 2.17 mM. In addition, the kcat/Km came to 2200 M⁻¹ s⁻¹ in series [4], 3940 M⁻¹ s⁻¹ in series [5], 413 M⁻¹ s⁻¹ in series [6] and 3710 M⁻¹ s⁻¹ in series [7].
